Measurements published in US20250186597A1, “TARGETED IMMUNE ACTIVATION WITH IL-18 IMMUNOCYTOKINES” (BRIGHT PEAK THERAPEUTICS AG, priority 2023, published 2025).

Experiments:
Assay type in all cases: cell-based, human
[1] = system: NK92 cells; experiment: IFN gamma secretion assay in NK92 cells (Example 10); conditions: IFNγ secretion, 1 ng/ml IL-12
Method: The IFNγ-secretion stimulating activity of the unconjugated IL-18 variants and corresponding IL-18 immunocytokines was evaluated on NK92 cell line. The NK cell line NK-92 derived from a patient with lymphoma (ATCC, Cat #CRL-2407) was cultured in aMEM medium supplemented with 12.5% FCS, 12.5% horse serum (HS), 50 uM B-mercaptoEthanol, and 2 ng/ml of recombinant Human Interleukin-2 (IL-2).
On the day of experiment, cells were harvested and washed with aMEM medium without IL-2 and resuspended in medium (w/o IL-2) containing 1 ng/ml of recombinant human Interleukin-12 (SinoBiologicals, Cat #CT011-H08H). After counting, cells were seeded at 100 000 cells/well in a 384 well titer plate and incubated at 37° C./5% CO2. Sixteen 4-fold serial dilutions of IL-18 analytes were prepared in aMEM medium—1 ng/ml IL-12 and were added to the NK-92 cells. […]
(§1) After 16-20 h incubation at 37° C./5% CO2, 5 μl of supernatant were carefully transferred to a 384 microwells OPTIPlate (Perkin Elmer; Cat #6007270) and Interferon-gamma (IFNγ) levels measured using the Human IFNγ AlphaLISA Assay Kit (Perkin Elmer, Cat #AL217C). […] AlphaLisa signal was then measured on an Enspire plate reader (Perkin Elmer) using 680 and 615 nm as excitation and emission wavelengths respectively. Half maximal effective concentration (EC50) was calculated based on a variable slope, four parameter analysis using GraphPad PRISM software.

[2] = system: PD-1positive transduced NK-92 cells; experiment: IFN gamma secretion assay in PD-1 positive transduced NK-92 cells (Example 17)
Method: (§2) To show selectivity of the anti-PD1-IL18 immunocytokine (IC) for PD-1 positive cells, the NK-92 cell line was used to generate a PD-1 expressing cell line and furthermore, to measure IFN[…] release upon incubation with IL-18 variants and ICs.
(§3) On the day of experiment, parental PD-1negative and PD-1positive transduced cells were harvested and washed with PBS 1× and resuspended in medium (w/o IL-2) containing 1 ng/ml of recombinant human Interleukin-12 (SinoBiologicals, Cat #CT011-H08H). After counting, cells were seeded at 100 000 cells/well in a 384 well culture plate and incubated at 37° C./5% CO2. When indicated, cells were preincubated with anti-PD-1 antibody LZM-009 at 17 uM during 30 min at 37° C. […] The lowest concentration assessed was 0.8 fM.
as §1, with “microwell OptiPlate” for “microwells OPTIPlate”, “levels were” for “levels”, “AlphaLISA” for “AlphaLisa”

[3] = system: PD-1 positive (transduced) KG-1 cells; experiment: IFN gamma secretion assay in PD-1 transduced KG-1 cells (Example 11)
Method: The KG-1 cell line was used to generate a PD-1 expressing cell line and furthermore, to measure IFNγ release upon incubation with IL-18 variants and corresponding IL-18 immunocytokines.
PD-1 expressing cell line generation: Briefly, KG-1 cells were transduced using lentiviral particles carrying the human PD-1 gene (PDCD1 NM_005018; Origene, CAT #: RC210364L3V) at a MOI (Multiplicity of Infection) of 30. Spinfection was performed at 1260 g during 90 min at 37° C. in the presence of 5 μg/ml of Polybrene and 10 mM of HEPES in complete culture media (RPMI, 10% FBS, 1% L-Glutamine). […]
IFNγ release was assessed in PD-1 positive (transduced) KG-1 cells, as well as in the parental PD-1 negative cells. […] The lowest concentration assessed was […]. After incubation, IFNγ release was measured using the LEGENDplex custom human mix and match KIT (Biolegend LEGENDplex™ Human IFN-γ Capture Bead B5, 13X #740942, LEGENDplex™ HU Essential Immune Response Panel Detection Abs, #740931, LEGENDplex™ Buffer Set A #740368). […] Fluorescence measurements were done with a Quanteon Flow Cytometer from Acea Biosciences. For analysis, MFI values (median fluorescence intensity) were exported and plotted against concentrations used. The EC50 values (half maximal effective concentration) were calculated based on a variable slope and four parameter analysis using GraphPad PRISM software version 9.

[4] = system: parental PD-1negative NK-92 cells; experiment: IFN gamma secretion assay in parental PD-1 negative NK-92 cells (Example 17); conditions: IFNγ secretion
Method: as §2, §3
as §1, with “microwell OptiPlate” for “microwells OPTIPlate”, “levels were” for “levels”, “AlphaLISA” for “AlphaLisa”

B1: SEQ ID NO: 30: IL-18 polypeptide: E6K, V11I, C38A, K53A, T63A, C76A, C127A (protein)
chain: YFGKLKSKLSIIRNLNDQVLFIDQGNRPLFEDMTDSDARDNAPRTIFIISMYADSQPRGMAVAISVKCEKISTLSAENKIISFKEMNPPDNIKDTKSDIIFFQRSVPGHDNKMQFESSSYEGYFLAAEKERDLFKLILKKEDELGDRSIMFTVQNED
- EC50 [1]: 2 pM
- EC50 ([2]; IFNγ secretion): 2.8 pM
- PD-1^neg/PD-1^pos EC50 ratio ([2]; NK-92 cells): 0.9
- EC50 ([3]; IFNγ secretion, PD-1 transduced KG-1): 8 pM
- PD-1^neg/PD-1^pos EC50 ratio ([3]; KG-1 cells): 1.336
- EC50 [4]: 2.4 pM
